Test results from the Immune Epitope Database (IEDB).

Columns and labels:
Assay in all cases: IEDB peptide-MHC binding, purified MHC/competitive/radioactivity; filed as Kd, often an IC50 or EC50 that approximates it; ≥ and ≤ were set here for values at or beyond the usual limits of such assays
HLA-A*03:01 = molecular target: HLA-A*03:01
HLA-A*11:01 = molecular target: HLA-A*11:01
HLA-A*31:01 = molecular target: HLA-A*31:01
HLA-A*33:01 = molecular target: HLA-A*33:01
HLA-A*68:01 = molecular target: HLA-A*68:01
[1] = source organism: Vaccinia virus WR
[2] = source organism: Dengue virus 3 Martinique/1243/1999
[3] = source organism: Dengue virus 2 Jamaica/1409/1983
[4] = source organism: Vaccinia virus Copenhagen
[5] = source organism: SARS coronavirus Tor2
[6] = source organism: Dengue virus 2 Peru/IQT2913/1996
[7] = source organism: Dengue virus 4 Philippines/H241/1956
[8] = source organism: Lymphocytic choriomeningitis virus (strain Armstrong)
[9] = source organism: Mammarenavirus lassaense
[10] = source organism: Triticum aestivum

| Sequence | Kd (HLA-A*03:01; [1]) [nM] | Kd (HLA-A*11:01; [1]) [nM] | Kd (HLA-A*31:01; [1]) [nM] | Kd (HLA-A*33:01; [1]) [nM] | Kd (HLA-A*68:01; [1]) [nM] | further results |
| --- | --- | --- | --- | --- | --- | --- |
| LISLNSMYTR | 1090 | 22.8 | 1.11 | 115 | 38.6 |  |
| IALGLMALK |  |  |  |  |  | Kd (HLA-A*11:01; [2]): 42.7 nM |
| GINNVQSLIK | 170 | 17.2 | 16100 | ≥ 70000 | 10300 |  |
| TTYDFLARK | 47.4 | 0.395 | 81.1 | 8530 | 105 |  |
| LLLRKLTSK |  |  |  |  |  | Kd (HLA-A*03:01; [3]): 28.8 nM |
| GFTATICLK |  |  |  |  |  | Kd (HLA-A*03:01; [4]): 1890 nM; Kd (HLA-A*11:01; [4]): 40.3 nM; Kd (HLA-A*31:01; [4]): 1730 nM; Kd (HLA-A*33:01; [4]): 467 nM; Kd (HLA-A*68:01; [4]): 81.5 nM |
| QLLKILDNLR | ≥ 70100 | 15100 | 69.1 | 5630 | 561 |  |
| MSRGYFEHMK | 31.8 | 7.24 | 22 | 2170 | 8.88 |  |
| ESNILDIDLR |  |  |  |  |  | Kd (HLA-A*68:01; [3]): 160 nM |
| EIINDKGKQY | ≥ 70100 | ≥ 69800 | 12800 | ≥ 70000 | 3990 |  |
| TTLLNETAK | 201 | 13.1 | 3560 | 8060 | 10.2 |  |
| DIALALEQY | ≥ 78000 | ≥ 77900 | 10500 | ≥ 23900 | 364 |  |
| LVTRKCPQKK | ≥ 70100 | 15900 | ≥ 70000 | ≥ 70000 | ≥ 70200 |  |
| SVSAKQLRTR | 168 | 90.8 | 700 | 5590 | 148 |  |
| DFAVSKGFFK |  |  |  |  |  | Kd (HLA-A*03:01; [5]): 768 nM; Kd (HLA-A*11:01; [5]): 107 nM; Kd (HLA-A*31:01; [5]): 1040 nM; Kd (HLA-A*33:01; [5]): 50.1 nM; Kd (HLA-A*68:01; [5]): 16.8 nM |
| ALNDTWKIEK |  |  |  |  |  | Kd (HLA-A*03:01; [6]): 60.3 nM; Kd (HLA-A*11:01; [6]): 398 nM |
| RLCLFDRYFK |  |  |  |  |  | Kd (HLA-A*03:01; [5]): 23.8 nM; Kd (HLA-A*11:01; [5]): 56.5 nM; Kd (HLA-A*31:01; [5]): 46.1 nM; Kd (HLA-A*33:01; [5]): 1950 nM; Kd (HLA-A*68:01; [5]): 861 nM |
| GSCVTTMAK |  |  |  |  |  | Kd (HLA-A*11:01; [3]): 115 nM |
| NLKQLPFFYY |  |  |  |  |  | Kd (HLA-A*03:01; [5]): ≥ 36000 nM; Kd (HLA-A*11:01; [5]): 5350 nM; Kd (HLA-A*31:01; [5]): ≥ 70000 nM; Kd (HLA-A*33:01; [5]): ≥ 70000 nM; Kd (HLA-A*68:01; [5]): ≥ 10000 nM |
| GQGQNSADPK |  |  |  |  |  | Kd (HLA-A*33:01; [5]): ≥ 70000 nM; Kd (HLA-A*68:01; [5]): ≥ 70200 nM |

| Sequence | Kd (HLA-A*03:01; [1]) [nM] | Kd (HLA-A*11:01; [1]) [nM] | Kd (HLA-A*31:01; [1]) [nM] | Kd (HLA-A*33:01; [1]) [nM] | Kd (HLA-A*68:01; [1]) [nM] | further results |
| --- | --- | --- | --- | --- | --- | --- |
| HTWQKQTQR |  |  |  |  |  | Kd (HLA-A*31:01; [2]): 2.88 nM; Kd (HLA-A*33:01; [2]): 57.8 nM |
| TLNVLAWLY |  |  |  |  |  | Kd (HLA-A*03:01; [5]): 36.5 nM; Kd (HLA-A*11:01; [5]): 25 nM; Kd (HLA-A*31:01; [5]): 2720 nM; Kd (HLA-A*33:01; [5]): 7370 nM; Kd (HLA-A*68:01; [5]): 13200 nM |
| ILARRPTPKK |  |  |  |  |  | Kd (HLA-A*03:01; [4]): 1.7 nM; Kd (HLA-A*11:01; [4]): 4 nM; Kd (HLA-A*31:01; [4]): 18100 nM; Kd (HLA-A*33:01; [4]): ≥ 70000 nM; Kd (HLA-A*68:01; [4]): 2390 nM |
| AVVYRGTTTY |  |  |  |  |  | Kd (HLA-A*03:01; [5]): 123 nM; Kd (HLA-A*11:01; [5]): 492 nM; Kd (HLA-A*31:01; [5]): 5040 nM; Kd (HLA-A*33:01; [5]): 19300 nM; Kd (HLA-A*68:01; [5]): 861 nM |
| MTLVPVLEKK | 8.42 | 0.466 | 122 | 869 | 1.31 |  |
| TVGPWHLGK |  |  |  |  |  | Kd (HLA-A*03:01; [7]): 17 nM; Kd (HLA-A*11:01; [7]): 24.5 nM |
| AIYVFCISLK |  |  |  |  |  | Kd (HLA-A*03:01; [5]): 161 nM; Kd (HLA-A*11:01; [5]): 489 nM; Kd (HLA-A*31:01; [5]): 11300 nM; Kd (HLA-A*33:01; [5]): ≥ 48900 nM; Kd (HLA-A*68:01; [5]): 8800 nM |
| DHVSTLLTWH |  |  |  |  |  | Kd (HLA-A*03:01; [8]): ≥ 22400 nM; Kd (HLA-A*11:01; [8]): ≥ 69700 nM; Kd (HLA-A*31:01; [8]): 8610 nM; Kd (HLA-A*33:01; [8]): ≥ 70000 nM; Kd (HLA-A*68:01; [8]): 12300 nM |
| AQRRGRVGR |  |  |  |  |  | Kd (HLA-A*31:01; [2]): 13.2 nM |
| FFTYLCGFIK |  |  |  |  |  | Kd (HLA-A*03:01; [5]): 440 nM; Kd (HLA-A*11:01; [5]): 963 nM; Kd (HLA-A*31:01; [5]): 612 nM; Kd (HLA-A*33:01; [5]): 1200 nM; Kd (HLA-A*68:01; [5]): 206 nM |
| TCQGSDDIKK |  |  |  |  |  | Kd (HLA-A*03:01; [9]): ≥ 70000 nM; Kd (HLA-A*11:01; [9]): 13000 nM; Kd (HLA-A*31:01; [9]): 6330 nM; Kd (HLA-A*33:01; [9]): ≥ 24200 nM; Kd (HLA-A*68:01; [9]): 4450 nM |
| MSRVRISLIY | 270 | 548 | 3120 | 10600 | 262 |  |
| CANGWIQYDK | 888 | 599 | 73.6 | ≥ 27000 | 19.1 |  |
| ALDGTFQRK | 12.5 | 30.4 | ≥ 37900 | ≥ 77700 | ≥ 47200 |  |
| GMNDYLGIFK | 2.86 | 4.28 | 390 | 5970 | 572 |  |
| EMVDELVTR | ≥ 78000 | ≥ 40900 | 28.5 | 94.3 | 2.54 |  |
| NVVHAIILH |  |  |  |  |  | Kd (HLA-A*03:01; [10]): 19500 nM; Kd (HLA-A*11:01; [10]): ≥ 42800 nM; Kd (HLA-A*31:01; [10]): 14000 nM; Kd (HLA-A*33:01; [10]): ≥ 24600 nM; Kd (HLA-A*68:01; [10]): 1490 nM |
| DFWRLYNSLK | 1650 | 1010 | 2570 | 3.13 | 730 |  |
| YTISSESLVY | 831 | 31.8 | ≥ 27900 | ≥ 70000 | 21.4 |  |
